Measurements reported in patent US20160208233A1 (Harvard, published 2016).
Positions count from the first letter of the chain named. Where “and” joins values, the source holds several entries; their conditions need not be identical. Equal entries are not always repeated.

What was measured:
[1] = target: T1, Alexa Fluor 647-LPESGG
T1 chain: KLPESGG

[2] = target: T2, Gly-Gly-Gly-COOH
T2 chain: GGG

[3] = target: T3, Abz-LPESGK(Dnp)-CONH2
T3 chain: LPESGK

[4] = target: T4, Alexa Fluor 488-LAETGG
T4 chain: KLAETGG

[5] = target: T5, Abz-LRETGK(Dnp)-CONH2
T5 chain: LRETGK

[6] = target: T6, Abz-LPETGK(Dnp)-CONH2
T6 chain: LPETGK

[7] = target: T7, Abz-LAETGK(Dnp)-CONH2
T7 chain: LAETGK

[8] = target: T8, Abz-LSETGK(Dnp)-CONH2
T8 chain: LSETGK

[9] = target: T9, Abz-LPEAGK(Dnp)-CONH2
T9 chain: LPEAGK

[10] = target: T10, Abz-LPECGK(Dnp)-CONH2
T10 chain: LPECGK

[11] = target: T11, human fetuin A, endogenous in human plasma, P02765
T11 chain: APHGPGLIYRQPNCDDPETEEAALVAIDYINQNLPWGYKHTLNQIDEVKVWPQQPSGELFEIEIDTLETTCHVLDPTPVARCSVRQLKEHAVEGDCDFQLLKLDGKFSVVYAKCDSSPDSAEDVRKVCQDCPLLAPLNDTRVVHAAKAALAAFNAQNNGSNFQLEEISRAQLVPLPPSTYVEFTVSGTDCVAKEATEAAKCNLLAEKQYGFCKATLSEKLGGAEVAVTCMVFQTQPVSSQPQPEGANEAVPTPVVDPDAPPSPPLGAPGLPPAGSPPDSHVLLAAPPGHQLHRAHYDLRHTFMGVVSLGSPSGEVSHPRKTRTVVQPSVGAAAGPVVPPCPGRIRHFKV

B1: eSrtA(2A-9) (protein)
chain: QAKPQIPKDKSKVAGYIEIPDADIKEPVYPGPATREQLNRGVCFHDENESLDDQNISIAGHTFIDRPNYQFTNLKAAKPGSMVYFKVGNETRIYKMTSIRKVHPNAVEVLDEQEGKDKQLTLVTCDDYNEETGVWESRKIFVATEVK
[1]
  conjugation of fluorophore-peptide to GGG-diblock (gel fluorescence), non-cognate pair: no detectable off-target substrate conjugation
  modification of GGG-PEG-functionalized 96-well plates (fluorescence), non-cognate pair: no significant modification: Each enzyme exhibited significant modification only on its cognate substrate
[2]
  Avg KM (uM) for GGG; with LAETG (2A) peptide: 1480 µM
  Avg kcat/KM for GGG; with LAETG (2A) peptide: 1070
  Km,GGG (µM); listed substrate LAETG: 1480 µM
  Km,GGG (µM); listed substrate LPETG: 585 µM
  Km,GGG (µM); listed substrate LRETG: 628 µM
  Km,GGG (µM); listed substrate LSETG: 1270 µM
[3]
  Km: 4800 µM
  Rel. Activity (fold below the enzyme's best substrate, LAETG): 5940 fold
  kcat/Km: 1.42 M⁻¹ s⁻¹
[4]
  conjugation of fluorophore-peptide to GGG-diblock (gel fluorescence), cognate pair: Significant peptide-diblock conjugation was observed only for cognate pairs of enzyme and substrate, with no detectable off-target substrate conjugation
  modification of GGG-PEG-functionalized 96-well plates (fluorescence), cognate pair: Each enzyme exhibited significant modification only on its cognate substrate
[5]
  Km: 1070 µM
  kcat/Km: 233 M⁻¹ s⁻¹
[6]
  Avg KM: 1270 µM
  Avg kcat/KM: 16.5
  Km: 1270 µM
  Rel. Activity (fold below the enzyme's best substrate, LAETG): 510 fold
  kcat/Km: 16.5 M⁻¹ s⁻¹
[7]
  Avg KM: 265 µM
  Avg kcat/KM: 8420
  Km: 265 µM
  Specificity (relative catalytic efficiency, fold), LAETG over LPETG: 510 fold
  kcat/Km: 8420 M⁻¹ s⁻¹
[8]
  Km: 331 µM
  kcat/Km: 355 M⁻¹ s⁻¹

B2: eSrtA(4S-9) (protein)
chain: QAKPQIPKDKSKVAGYIEIPDADIKEPVYPGPATREQLDRGVCFVEENESLDDQNISITGHTAIDRPNYQFTNLRAAKKGSMVYLKVGNETRKYKMTSIRNVKPTAVEVLDEQKGKDKQLTLVTCDDYNFETGVWETRKIFVATEVK
[1]
  conjugation of fluorophore-peptide to GGG-diblock (gel fluorescence), cognate pair: Significant peptide-diblock conjugation was observed only for cognate pairs of enzyme and substrate, with no detectable off-target substrate conjugation
  modification of GGG-PEG-functionalized 96-well plates (fluorescence), cognate pair: Each enzyme exhibited significant modification only on its cognate substrate
[2]
  Avg KM (uM) for GGG; with LPESG (4S) peptide: 69500 µM
  Avg KM (uM) for GGG; with LPETG (wt) peptide: 97600 µM
  Avg kcat/KM for GGG; with LPESG (4S) peptide: 46.1
  Avg kcat/KM for GGG; with LPETG (wt) peptide: 0.587
  Km,GGG (µM); listed substrate LPEAG: 41000 µM
  Km,GGG (µM); listed substrate LPECG: 55000 µM
  Km,GGG (µM); listed substrate LPESG: 69000 µM
  Km,GGG (µM); listed substrate LPETG: 98000 µM
[9]
  Km: 154 µM
  kcat/Km: 12300 M⁻¹ s⁻¹
[3]
  Avg KM: 123 µM
  Avg kcat/KM: 17600
  Km: 113 µM
  Specificity, LPESG over LPETG: 25 fold
  difference in transpeptidation of LPESG over LPETG: an approximately 40-fold difference in transpeptidation of LPESG (SEQ ID NO: 3) over LPETG (SEQ ID NO: 4) by eSrtA(4S-9)
  kcat/Km: 18200 M⁻¹ s⁻¹ and 18000 M⁻¹ s⁻¹
[4]
  conjugation of fluorophore-peptide to GGG-diblock (gel fluorescence), non-cognate pair: no detectable off-target substrate conjugation
  modification of GGG-PEG-functionalized 96-well plates (fluorescence), non-cognate pair: no significant modification: Each enzyme exhibited significant modification only on its cognate substrate
[6]
  Avg KM: 66.1 µM
  Avg kcat/KM: 706
  Km: 64.7 µM
  Rel. Activity (fold below the enzyme's best substrate, LPESG): 25 fold
  kcat/Km: 720 M⁻¹ s⁻¹
[10]
  Km: 69 µM
  kcat/Km: 74000 M⁻¹ s⁻¹
[7]
  Km: 387 µM
  Rel. Activity (fold below the enzyme's best substrate, LPESG): 898 fold
  kcat/Km: 20.2 M⁻¹ s⁻¹
[11]
  conjugation efficiency in human plasma, with supplemental calcium (densitometry): 1.8% or 57.6% by eSrtA(4S-9) in the absence or presence of supplemental calcium, respectively
  conjugation efficiency in human plasma, without supplemental calcium (densitometry): 1.8% or 57.6% by eSrtA(4S-9) in the absence or presence of supplemental calcium, respectively
  labeling of human plasma proteins with Gly-Gly-Gly-Lys(Biotin): identified a single transpeptidation product (FIG. 21C-D), identified by mass spectrometry and confirmed by Western blot as fetuin A

B3: wild-type S. aureus sortase A (protein)
chain: QAKPQIPKDKSKVAGYIEIPDADIKEPVYPGPATPEQLNRGVSFAEENESLDDQNISIAGHTFIDRPNYQFTNLKAAKKGSMVYFKVGNETRKYKMTSIRDVKPTDVEVLDEQKGKDKQLTLITCDDYNEKTGVWEKRKIFVATEVK
[2]
  Km, GGG (uM); with LPETG peptide: 291 µM
  Km,GGG (µM); listed substrate LPETG: 211 µM
[6]
  Km: 7600 µM
  Km, LxExG: 5180 µM
  kcat/Km: 200 M⁻¹ s⁻¹
  kcat/Km (Hz/M): 236 Hz/M

B4: eSrtA(2A-6) (protein)
chain: B3 chain with P35R, A45H, K79V, D101N, K103R, D106A, I123V, K131E, K137T
[2]
  Avg KM (uM) for GGG; with LAETG (2A) peptide: 1110 µM
  Avg kcat/KM for GGG; with LAETG (2A) peptide: 1610
  Km, GGG (uM); with LAETG peptide: 1040 µM
[6]
  Avg KM: 3400 µM
  Avg kcat/KM: 47.7
  Km, LxExG: 3290 µM
  kcat/Km (Hz/M): 47.8 Hz/M
[7]
  Avg KM: 665 µM
  Avg kcat/KM: 3930
  Km, LxExG: 608 µM
  Specificity (relative catalytic efficiency, fold), LAETG over LPETG: 82.4 fold
  kcat/Km (Hz/M): 4130 Hz/M
  specificity (relative cat. Efficiency, fold), LAETG over LPETG: 86.4 fold

B5: eSrtA(4S-5) (protein)
chain: B2 chain with C43S, L85F, F130E
[2]
  Km,GGG (uM); with LPESG peptide: 26700 µM
[3]
  Avg KM: 76 µM
  Avg kcat/KM: 5130
  Km, LxExG: 76 µM
  Specificity, LPESG over LPETG: 9.67 fold
  increase in kcat/Km, LPESG substrate against LPETG substrate: from ˜2-fold (4Sr5) to ˜5-fold (4Sr6a) increase in kcat/Km
  increased affinity for the LPESG substrate as compared to the LPETG substrate: from ˜2-fold (4Sr6b) to ˜8-fold (4Sr5)
  kcat/Km (Hz/M): 5130 Hz/M
  specificity (relative cat. Efficiency, fold), LPESG over LPETG: 10 fold
[6]
  Avg KM: 11.7 µM
  Avg kcat/KM: 530
  Km, LxExG: 12.2 µM
  kcat/Km (Hz/M): 513 Hz/M

B6: eSrtA(4S-6) (protein)
chain: B2 chain with C43S, T59S, R75G, L85F, F130V
[2]
  Avg KM (uM) for GGG; with LPESG (4S) peptide: 13100 µM
  Avg kcat/KM for GGG; with LPESG (4S) peptide: 153
  Km,GGG (uM); with LPESG peptide: 4950 µM
[3]
  Avg KM: 125 µM
  Avg kcat/KM: 7530
  Km, LxExG: 102 µM
  Specificity, LPESG over LPETG: 8.09 fold
  increase in kcat/Km, LPESG substrate against LPETG substrate: from ˜2-fold (4Sr5) to ˜5-fold (4Sr6a) increase in kcat/Km
  kcat/Km (Hz/M): 9390 Hz/M
  specificity (relative cat. Efficiency, fold), LPESG over LPETG: 11 fold
[6]
  Avg KM: 1040 µM
  Avg kcat/KM: 930
  Km, LxExG: 1290 µM
  kcat/Km (Hz/M): 854 Hz/M

B7: eSrtA(2A-5) (protein)
chain: B3 chain with P35R, R40H, A45H, K79I, D101N, K103R, D106A, I123V, K131E, K137T
[2]
  Km, GGG (uM); with LAETG peptide: 2810 µM
[6]
  Km, LxExG: 4900 µM
  kcat/Km (Hz/M): 28.1 Hz/M
[7]
  Km, LxExG: 433 µM
  increase in kcat/Km, LAETG substrate against LPETG substrate: from ˜40-fold (2Ar4) to ˜125-fold (2Ar5) increase in kcat/Km
  increased affinity for the LAETG substrate as compared to the LPETG substrate: from ˜61 (2A.6c) to ˜116fold (2Ar5)
  kcat/Km (Hz/M): 3260 Hz/M
  specificity (relative cat. Efficiency, fold), LAETG over LPETG: 116 fold

B8: 2A.6C (protein)
chain: B1 chain with C43S, D46E, H103R, N105T, E114K, S137T
[2]
  Km, GGG (uM); with LAETG peptide: 642 µM
[6]
  Km, LxExG: 1980 µM
  kcat/Km (Hz/M): 38.7 Hz/M
[7]
  Km, LxExG: 343 µM
  increased affinity for the LAETG substrate as compared to the LPETG substrate: from ˜61 (2A.6c) to ˜116fold (2Ar5)
  kcat/Km (Hz/M): 2380 Hz/M
  specificity (relative cat. Efficiency, fold), LAETG over LPETG: 61.6 fold

B9: 4S.6B (protein)
chain: B2 chain with C43S, T59S, R75P, L85F, F130P
[2]
  Km,GGG (uM); with LPESG peptide: 15700 µM
[3]
  Km, LxExG: 312 µM
  increased affinity for the LPESG substrate as compared to the LPETG substrate: from ˜2-fold (4Sr6b) to ˜8-fold (4Sr5)
  kcat/Km (Hz/M): 4140 Hz/M
  specificity (relative cat. Efficiency, fold), LPESG over LPETG: 0.91 fold
[6]
  Km, LxExG: 238 µM
  kcat/Km (Hz/M): 4550 Hz/M

B10: 2A.6B (protein)
chain: B1 chain with R40K, C43S, D46E, P79V, I93K, H103R, N105T, E114K, S137T
[2]
  Km, GGG (uM); with LAETG peptide: 642 µM
[7]
  Km, LxExG: 310 µM
  kcat/Km (Hz/M): 2270 Hz/M

B11: 4S.6C (protein)
chain: B2 chain with C43S, L85F
[2]
  Km,GGG (uM); with LPESG peptide: 36000 µM
[3]
  Km, LxExG: 156 µM
  kcat/Km (Hz/M): 4350 Hz/M
  specificity (relative cat. Efficiency, fold), LPESG over LPETG: 18.5 fold
[6]
  Km, LxExG: 16.1 µM
  kcat/Km (Hz/M): 235 Hz/M
